Numbering of substitutions follows the chain as printed. Numbers in names are those of the source.
B1: Recombinant human FcγRI/CD64, extracellular domain, glycosylated (receptor, UniProt P12314 16-292, looked up)
chain: QVDTTKAVITLQPPWVSVFQEETVTLHCEVLHLPGSSSTQWFLNGTATQTSTPSYRITSASVNDSGEYRCQRGLSGRSDPIQLEIHRGWLLLQVSSRVFTEGEPLALRCHAWKDKLVYNVLYYRNGKAFKFFHWNSNLTILKTNISHNGTYHCSGMGKHRYTSAGISVTVKELFPAPVLNASVTSPLLEGNLVTLSCETKLLLQRPGLQLYFSFYMGSKTLRGRNTSSEYQILTARREDSGLYWCEAATEDGNVLKRSPELELQVLGLQLPTPVWFH
notes: extracellular domain; also called FcγRIa; FcγRIa-FITC
B2: Fc12 (N361D, E382V, M428I), aglycosylated Fc mutant (other)
chain: DKTHTCPPCPAPELLGGPSVFLFPPKPKDTLMISRTPEVTCVVVDVSHEDPEVKFNWYVDGVEVHNAKTKPREEQYNSTYRVVSVLTVLHQDWLNGKEYKCKVSNKALPAPIEKTISKAKGQPREPQVYTLPPSRDELTKDQVSLTCLVKGFYPSDIAVEWVSNGQPENNYKTTPPVLDSDGSFFLYSKLTVDKSRWQQGNVFSCSVIHEALHNHYTQKSLSLSPGK
B3: Fc102 (other)
Fc chain: B2 chain
B4: Fc149 (E380D, E382V, N384R, S426V, M428L, E430D), aglycosylated Fc mutant (other)
chain: B2 chain with D141N, E160D, N164R, S206V, I208L, E210D
B5: Fc152 (H224R, E382V, S426T, M428S, E430P), aglycosylated Fc mutant (other)
chain: B2 chain with H4R, D141N, S206T, I208S, E210P
B6: Fc49 (C229R, E382V, M428I), aglycosylated Fc mutant (other)
chain: B2 chain with C9R, D141N
notes: also called aglycosylated-Fc49
B7: Fc100 (other)
Fc chain: B2 chain with D141N, E160T, V162M, N164E, I208M
B8: Fc106 (E382T, N384D, M428I), aglycosylated Fc mutant (other)
chain: B2 chain with D141N, V162T, N164D
B9: Fc23 (H310Y, K322R, T350A, E382V, S426T, S442P), aglycosylated Fc mutant (other)
chain: B2 chain with H90Y, K102R, T130A, D141N, S206T, I208M, S222P
B10: Fc147 (other)
Fc chain: B2 chain with C9R, D141N
B11: Fc114 (N361S, E382V, M428I), aglycosylated Fc mutant (other)
chain: B2 chain with D141S
B12: Fc20 (N361D, F372L, E382V, M428I), aglycosylated Fc mutant (other)
chain: B2 chain with F152L
B13: Fc151 (E382V, S426I, M428L, E430S), aglycosylated Fc mutant (other)
chain: B2 chain with D141N, S206I, I208L, E210S
B14: Fc143 (P238S, E382V, S426V, M428L, E430H), aglycosylated Fc mutant (other)
chain: B2 chain with P18S, D141N, S206V, I208L, E210H
B15: dsbA-FcγRIIa-His (receptor, Homo sapiens, UniProt P12318 34-217, looked up)
receptor chain: QAAAPPKAVLKLEPPWINVLQEDSVTLTCQGARSPESDSIQWFHNGNLIPTHTQPSYRFKANNNDSGEYTCQTGQTSLSDPVHLTVLSEWLVLQTPHLEFQEGETIMLRCHSWKDKPLVKVTFFQNGKSQKFSHLDPTFSIPQANHSHSGDYHCTGNIGYTLFSSKPVTITVQVPSMGSSSPMG
notes: soluble mature form, exported to the E. coli periplasm by the dsbA signal; also called product of pTrcdsbAHis-FcγRIIa
B16: Fc217 (LGDGSPCKAN insertion between N297 and S298), aglycosylated Fc mutant (other)
chain: DKTHTCPPCPAPELLGGPSVFLFPPKPKDTLMISRTPEVTCVVVDVSHEDPEVKFNWYVDGVEVHNAKTKPREEQYNLGDGSPCKANSTYRVVSVLTVLHQDWLNGKEYKCKVSNKALPAPIEKTISKAKGQPREPQVYTLPPSRDELTKNQVSLTCLVKGFYPSDIAVEWESNGQPENNYKTTPPVLDSDGSFFLYSKLTVDKSRWQQGNVFSCSVMHEALHNHYTQKSLSLSPGK
B17: Fc216 (WQVFNKYTKP insertion between N297 and S298), aglycosylated Fc mutant (other)
chain: B16 chain with L78W, G79Q, D80V, G81F, S82N, P83K, C84Y, K85T, A86K, N87P
B18: Fc209 (F241L, K326E, EVPLVWMWVS insertion between N297 and S298), aglycosylated Fc mutant (other)
chain: DKTHTCPPCPAPELLGGPSVLLFPPKPKDTLMISRTPEVTCVVVDVSHEDPEVKFNWYVDGVEVHNAKTKPREEQYNEVPLVWMWVSSTYRVVSVLTVLHQDWLNGKEYKCKVSNEALPAPIEKTISKAKGQPREPQVYTLPPSRDELTKNQVSLTCLVKGFYPSDIAVEWESNGQPENNYKTTPPVLDSDGSFFLYSKLTVDKSRWQQGNVFSCSVMHEALHNHYTQKSLSLSPGK
B19: Fc207 (QLISHYRHLT insertion between N297 and S298), aglycosylated Fc mutant (other)
chain: B16 chain with L78Q, G79L, D80I, G81S, S82H, P83Y, C84R, K85H, A86L, N87T

Tests used:
BSA = target: T1, BSA (Bos taurus, UniProt P02769); experiment: fluorescence ELISA: BSA coated wells, FITC labeled FcγRIa serially diluted 4-fold [panel b]
T1 construct: also called BSA coated
T1 sequence (P02769 25-607 limits assumed): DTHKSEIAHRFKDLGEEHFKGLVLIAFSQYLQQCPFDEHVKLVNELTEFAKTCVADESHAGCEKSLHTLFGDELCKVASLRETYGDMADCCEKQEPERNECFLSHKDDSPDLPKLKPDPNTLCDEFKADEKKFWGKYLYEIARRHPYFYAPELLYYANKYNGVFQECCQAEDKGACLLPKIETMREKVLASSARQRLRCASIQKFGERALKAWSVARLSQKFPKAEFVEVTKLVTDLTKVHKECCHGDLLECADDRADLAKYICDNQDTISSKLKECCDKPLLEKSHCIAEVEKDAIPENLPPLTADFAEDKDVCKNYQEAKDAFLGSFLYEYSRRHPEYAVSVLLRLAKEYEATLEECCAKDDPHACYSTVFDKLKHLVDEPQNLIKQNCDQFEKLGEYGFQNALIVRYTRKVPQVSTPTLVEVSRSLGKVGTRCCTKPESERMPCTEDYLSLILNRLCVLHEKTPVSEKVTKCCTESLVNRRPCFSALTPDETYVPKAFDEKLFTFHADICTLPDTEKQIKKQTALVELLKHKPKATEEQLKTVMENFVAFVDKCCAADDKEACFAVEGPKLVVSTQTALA

[1] = target: B1; experiment: flow cytometry of spheroplasts displaying the Fc, labelled with FcγRIa-FITC [panel b]
[2] = target: B1; experiment: flow cytometry of spheroplasts displaying the Fc clone, labelled with FcγRIa-FITC; the value is repeated on D00019 and D00020
[3] = target: B1; experiment: SPR (BIAcore 3000), FcγRIa immobilized on CM-5
Protein A-FITC = Protein A-FITC (Staphylococcus aureus, UniProt P38507 37-477); experiment: flow cytometry of spheroplasts, PMT 700V, TB with 0.5M trehalose, labeling with Protein A-FITC [panel a]
[4] = target: T2, extracellular domain of aglycosylated FcγRIIIa purified from E. coli inclusion bodies, FITC-labeled (human, UniProt P08637 17-208); experiment: flow cytometry of spheroplasts displaying the Fc, labelled with FcγRIIIa-FITC
T2 construct: extracellular domain; also called FcγRIIIa-FITC
T2 sequence (P08637 17-208): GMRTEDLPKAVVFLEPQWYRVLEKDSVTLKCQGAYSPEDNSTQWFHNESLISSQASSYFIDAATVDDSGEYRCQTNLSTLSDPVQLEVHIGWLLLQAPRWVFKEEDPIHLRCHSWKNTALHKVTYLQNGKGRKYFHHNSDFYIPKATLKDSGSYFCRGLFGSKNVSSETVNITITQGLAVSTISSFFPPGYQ

**Q.** Does B1 bind (BSA)?
**A.** Result: no binding

**Q.** Which “M (mean fluorescence intensity)” value [1] does the source give for B2 here?
**A.** The value was 307.

**Q.** With B3 as the binder, how does the FACS mean value [2] read?
**A.** The FACS mean value was 374.

**Q.** B4 was tested. Which FACS mean value [2] did it give?
**A.** Its FACS mean value is 140.

**Q.** With B5 as the binder, how does the FACS mean value [2] read?
**A.** Its FACS mean value is 173.

**Q.** Which Kd [3] does the source give for B6 here?
**A.** The Kd was 0.092 µM.

**Q.** And the koff [3]?
**A.** The koff was 0.0023 s⁻¹.

**Q.** And the kon [3]?
**A.** Its kon is 25000 M⁻¹ s⁻¹.

**Q.** What about the “M (mean fluorescence intensity)” value [1] of the same binder?
**A.** Its value is 409.

**Q.** How did the FACS mean value [2] turn out when B7 was run?
**A.** Its FACS mean value is 138.

**Q.** How did the FACS mean value [2] turn out when B8 was run?
**A.** The FACS mean value was 269.

**Q.** B9 was tested. Which “M (mean fluorescence intensity)” value [1] did it give?
**A.** The value was 335.

**Q.** For B10, which FACS mean value [2] is on record?
**A.** Its FACS mean value is 464.

**Q.** Which FACS mean value [2] does the source give for B11 here?
**A.** Its FACS mean value is 370.

**Q.** Which “M (mean fluorescence intensity)” value [1] does the source give for B12 here?
**A.** Its value is 295.

**Q.** How did the FACS mean value [2] turn out when B13 was run?
**A.** Its FACS mean value is 326.

**Q.** With B14 as the binder, how does the FACS mean value [2] read?
**A.** The FACS mean value was 211.

**Q.** Does B15 bind (Protein A-FITC)?
**A.** Result: no binding

**Q.** With B16 as the binder, how does the “M (mean fluorescence intensity)” value [4] read?
**A.** Its value is 500.

**Q.** For B17, which “M (mean fluorescence intensity)” value [4] is on record?
**A.** Its value is 496.

**Q.** For B18, which “M (mean fluorescence intensity)” value [4] is on record?
**A.** The value was 291.

**Q.** Which “M (mean fluorescence intensity)” value [4] does the source give for B19 here?
**A.** Its value is 143.

Reference: US20090136936A1 (RESEARCH DEVELOPMENT FOUNDATION, published 2009)
